The target in this assay is PARP15^CAT WT, isolated catalytic domain of human PARP15, batch with His-tag (human). Kind of assay: native MS.

Regarding “PARP15^CAT WT, isolated catalytic domain of human PARP15, batch with His-tag (domain or fragment)”, the stoichiometry N was determined as 2.

(Values after paper doi:10.64898/2025.12.15.694324.)
